Sequences and labels used below:
B1: JS016-38 (antibody, V domains shown)
VH: EVQLVESGGGLVQPGGSLRLSCAASGFRVRRNYMSWVRQAPGKGLEWVSVIYPGGSTFYADSVKGRFTISRDNSMNTLFLQMNSLRAEDTAVYYCARVLPMYGDYLDYWGQGTLVTVSS
VL: DIVMTQSPSSLSASVGDRVTITCRASQNIERYLNWYQQKPGKAPKLLIYAASSLQSGVPSRFSGSGSGTDFTLTISSLQPEDFATYYCQQSASSTPEYTFGQGTKLEIKR
B2: CB6-15 (重链突变库克隆) (Fab)
VH: B1 VH with R28Q, R30N
light: […]
notes: also called CB6-15-VH; CB6-15-HC
B3: CB6-30 (轻链突变库克隆) (Fab, V domains shown)
VH: B1 VH with R28T, R30S, R31S, P53S
VL: DIVMTQSPSSLSASVGDRVTITCRASQWILPYLNWYQQKPGKAPKLLIYAASSLQSGVPSRFSGSGSGTDFTLTISSLQPEDFATYYCQQSSSSTPEYTFGQGTKLEIK
notes: also called CB6-30-VL; CB6-30-LC
B4: CB6-20 (轻链突变库克隆) (Fab, V domains shown)
VH: B1 VH with R28T, R30S, R31S, P53S
VL: B3 VL with W28A, S92Y, S94I, T95I
notes: also called CB6-20-VL; CB6-20-LC
B5: CB6-38 (轻链突变库克隆) (Fab, V domains shown)
VH: B1 VH with R28T, R30S, R31S, P53S
VL: B3 VL with W28N, L30E, P31R, S92A
notes: also called CB6-38-VL; CB6-38-LC
B6: CB6-26 (轻链突变库克隆) (Fab, V domains shown)
VH: B1 VH with R28T, R30S, R31S, P53S
VL: B3 VL with W28R, L30E, P31Q, S92A, T95S
notes: also called CB6-26-VL; CB6-26-LC
B7: CB6-19 (轻链突变库克隆) (Fab, V domains shown)
VH: B1 VH with R28T, R30S, R31S, P53S
VL: B3 VL with W28Q, L30N, P31F, S92G, T95L
notes: also called CB6-19-VL; CB6-19-LC
B8: CB6-17 (轻链突变库克隆) (Fab, V domains shown)
VH: B1 VH with R28T, R30S, R31S, P53S
VL: B3 VL with W28V, L30N, P31H, S92G, S94P
notes: also called CB6-17-VL; CB6-17-LC
B9: CB6-33 (轻链突变库克隆) (Fab, V domains shown)
VH: B1 VH with R28T, R30S, R31S, P53S
VL: B3 VL with W28N, S94A, T95V
notes: also called CB6-33-VL; CB6-33-LC
B10: CB6-24 (轻链突变库克隆) (Fab, V domains shown)
VH: B1 VH with R28T, R30S, R31S, P53S
VL: B3 VL with W28Q, L30S, P31R, S94P
notes: also called CB6-24-VL; CB6-24-LC
B11: CB6-25 (轻链突变库克隆) (Fab, V domains shown)
VH: B1 VH with R28T, R30S, R31S, P53S
VL: B3 VL with W28N, L30M, P31Q, S94P, T95K
notes: also called CB6-25-VL; CB6-25-LC
B12: CB6-34 (轻链突变库克隆) (Fab, V domains shown)
VH: B1 VH with R28T, R30S, R31S, P53S
VL: B3 VL with W28S, P31Q, S94P, T95V
notes: also called CB6-34-VL; CB6-34-LC
B13: CB6-41 (轻链突变库克隆) (Fab, V domains shown)
VH: B1 VH with R28T, R30S, R31S, P53S
VL: B3 VL with W28A, L30A, P31Y, L47E, S92P, S94A, T95F
notes: also called CB6-41-VL; CB6-41-LC
B14: CB6-43 (轻链突变库克隆) (Fab, V domains shown)
VH: B1 VH with R28T, R30S, R31S, P53S
VL: B3 VL with W28N, L30H, P31T, S92G, T95I
notes: also called CB6-43-VL; CB6-43-LC
B15: CB6-27 (轻链突变库克隆) (Fab, V domains shown)
VH: B1 VH with R28T, R30S, R31S, P53S
VL: B3 VL with W28S, S92N, S94P, T95R
notes: also called CB6-27-VL; CB6-27-LC
B16: CB6-29 (轻链突变库克隆) (Fab, V domains shown)
VH: B1 VH with R28T, R30S, R31S, P53S
VL: B3 VL with W28M, S94A, T95K
notes: also called CB6-29-VL; CB6-29-LC
B17: CB6-21 (轻链突变库克隆) (Fab, V domains shown)
VH: B1 VH with R28T, R30S, R31S, P53S
VL: B3 VL with L30G, P31N, S92T, S94N, T95R
notes: also called CB6-21-VL; CB6-21-LC
B18: CB6-22 (轻链突变库克隆) (Fab, V domains shown)
VH: B1 VH with R28T, R30S, R31S, P53S
VL: B3 VL with W28R, S94A
notes: also called CB6-22-VL; CB6-22-LC
B19: CB6-36 (轻链突变库克隆) (Fab, V domains shown)
VH: B1 VH with R28T, R30S, R31S, P53S
VL: B3 VL with W28A, S94A, T95L
notes: also called CB6-36-VL; CB6-36-LC
B20: CB6-28 (轻链突变库克隆) (Fab, V domains shown)
VH: B1 VH with R28T, R30S, R31S, P53S
VL: B3 VL with W28D, L30V, P31S, S92A, S94P
notes: also called CB6-28-VL; CB6-28-LC
B21: CB6-18 (轻链突变库克隆) (Fab, V domains shown)
VH: B1 VH with R28T, R30S, R31S, P53S
VL: B3 VL with W28D, L30H, P31V, S92G, S94P, T95V
notes: also called CB6-18-VL; CB6-18-LC
B22: CB6-23 (轻链突变库克隆) (Fab, V domains shown)
VH: B1 VH with R28T, R30S, R31S, P53S
VL: B3 VL with L30P, P31S, S92K, S94W, T95K
notes: also called CB6-23-VL; CB6-23-LC
B23: CB6-39 (轻链突变库克隆) (Fab, V domains shown)
VH: B1 VH with R28T, R30S, R31S, P53S
VL: B3 VL with W28P, L30N, P31Q, S92K, T95L
notes: also called CB6-39-VL; CB6-39-LC
B24: CB6-35 (轻链突变库克隆) (Fab, V domains shown)
VH: B1 VH with R28T, R30S, R31S, P53S
VL: B3 VL with W28K, L30H, P31Q, S92E, T95K
notes: also called CB6-35-VL; CB6-35-LC
B25: CB6-37 (轻链突变库克隆) (Fab, V domains shown)
VH: B1 VH with R28T, R30S, R31S, P53S
VL: B3 VL with W28M, S94A
notes: also called CB6-37-VL; CB6-37-LC
B26: CB6-42 (轻链突变库克隆) (Fab, V domains shown)
VH: B1 VH with R28T, R30S, R31S, P53S
VL: B3 VL with W28S, L30I, P31Q, S92A, S94A, T95R
notes: also called CB6-42-VL; CB6-42-LC
B27: CB6-32 (轻链突变库克隆) (Fab, V domains shown)
VH: B1 VH with R28T, R30S, R31S, P53S
VL: B3 VL with W28D, L30D, P31G, S92A, S94P, T95V
notes: also called CB6-32-VL; CB6-32-LC
B28: CB6-40 (轻链突变库克隆) (Fab, V domains shown)
VH: B1 VH with R28T, R30S, R31S, P53S
VL: B3 VL with W28K, L30S, P31Q, S92T, S94F, T95M
notes: also called CB6-40-VL; CB6-40-LC
B29: CB6-31 (轻链突变库克隆) (Fab, V domains shown)
VH: B1 VH with R28T, R30S, R31S, P53S
VL: B3 VL with W28Q, L30R, P31Q, S94P
notes: also called CB6-31-VL; CB6-31-LC

The source of these data is patent publication CN115073593A (SHANGHAI JUNSHI BIOSCIENCES CO LTD; JUNMENG BIOSCIENCES CO …, dated 2022).

Where a chain is given by its changes, count along the chain named.

The first assay concerns the target T1, 重组SARS-CoV-2-RBD-His (SARS-CoV-2, UniProt P0DTC2 319-541).
T1 construct: domain: RBD
The experiment in a line: BLI Octet Red 96e, antibody on Protein A probe.
Regarding B1, the “fold improvement of the affinity constant over CB6” value is ~100 倍 and the “fold slower dissociation rate than CB6” value is ~100 倍.

A further assay deals with 生物素化的SARS-CoV-2 RBD (SARS-CoV-2, UniProt P0DTC2 319-541). The experiment in a line: ELISA screen, Fab culture supernatant on streptavidin-captured biotinylated RBD. For orientation: ELISA stands for enzyme-linked immunosorbent assay.
Turning to B2, the binding result is on record as “binds”.

Regarding B3, the binding result was “binds”.

As to B4, the binding result is listed as “binds”.

With B5, the binding result is reported as “binds”.

Regarding B6, the binding result is “binds”.

Take B7: the binding result is “binds”.

On to B8, for which the binding result is “binds”.

For the molecule B9, the binding result is reported as “binds”.

On to B10, for which the binding result is given as “binds”.

Take B11: the binding result is on record as “binds”.

Regarding B12, the binding result was “binds”.

As for B13, the binding result is listed as “binds”.

For B14, the binding result is given as “binds”.

For the molecule B15, the binding result is “binds”.

As to B16, the binding result is “binds”.

For the molecule B17, the binding result is “binds”.

As for B18, the binding result is listed as “binds”.

In the case of B19, the binding result was “binds”.

Turning to B20, the binding result was “binds”.

With B21, the binding result is “binds”.

On to B22, for which the binding result is given as “binds”.

As for B23, the binding result is listed as “binds”.

Take B24: the binding result is listed as “binds”.

Regarding B25, the binding result is on record as “binds”.

Turning to B26, the binding result is “binds”.

As to B27, the binding result is listed as “binds”.

For B28, the binding result is reported as “binds”.

For the molecule B29, the binding result is “binds”.

In the next assay the target is T1, 重组SARS-CoV-2-RBD-His. The experiment in a line: BLI Octet Red 96e, antibody on Protein A probe, RBD-his in solution.
Broadly, the Kd is the equilibrium constant for the complex coming apart. Usually koff stands for a measure of how fast the partners let go of each other. Higher therefore signals fast dissociation. Usually kon stands for the rate constant with which the complex forms. B1 displayed a Kd below 74.1 pM, an off-rate (koff) below 1e-05 s⁻¹ and an on-rate constant (kon) of 135000 M⁻¹ s⁻¹.
